Measured values reported in the RNAGym collection of RNA variant scans (doi:10.1093/molbev/msab373).

B1: Azoarcus group I ribozyme (parent)
chain: GUGCCUUGCGCCGGGAAACCACGCAAGGGAUGGUGUCAAAUUCGGCGAAACCUAAGCGCCCGCCCGGGCGUAUGGCAACGCCGAGCCAAGCUUCGGCGCCUGCGCCGAUGAAGGUGUAGAGACUAGACGGCACCCACCUAAGGCAAACGCUAUGGUGAAGGCAUAGUCCAGGGAGUGGCGAAAGUCACACAAACCGG

Variants of: B1
Test: reverse-splicing fitness (ratio to wild type); higher = more active; in vitro selection; Mg2+ level not given
Summary of the method: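 An in vitro group I ribozyme library with randomized positions was T7-transcribed and gel-purified. In triplicate, 10 pmol RNA in EPPS pH 7.5 was reacted with 50 pmoles of a 30-nt RNA substrate for 1 h at 37 °C across several added MgCl2 levels (1–48 mM), then stopped with EDTA. Products were reverse transcribed from a substrate-complementary primer, PCR-amplified and sequenced (HiSeq 4000). Fitness is a variant's read proportion after selection over that before, normalised to wild type.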

Row | Variant | reverse-splicing fitness
1 | C82G A111G C150G C169A U176A | 0.014
2 | C82G A111G C150G C169A U176C | 0.0166
3 | C82G A111G C150G C169A U176G | 0.00786
4 | C82G A111G C150G C169G | 0.00817
5 | C82G A111G C150G C169G U176A | 0.0106
6 | C82G A111G C150G C169G U176C | 0.00922
7 | C82G A111G C150G C169G U176G | 0.00613
8 | C82G A111G C150G C169U | 0.0107
9 | C82G A111G C150G C169U U176A | 0.00973
10 | C82G A111G C150G C169U U176C | 0.0165
11 | C82G A111G C150G C169U U176G | 0.008
12 | C82G A111G C150G U176A | 0.0136
13 | C82G A111G C150G U176C | 0.0225
14 | C82G A111G C150G U176G | 0.00548
15 | C82G A111G C150U | 0.199
16 | C82G A111G C150U C169A | 0.0104
17 | C82G A111G C150U C169A U176A | 0.0173
18 | C82G A111G C150U C169A U176C | 0.0178
19 | C82G A111G C150U C169A U176G | 0.00685
20 | C82G A111G C150U C169G | 0.00932
21 | C82G A111G C150U C169G U176A | 0.0165

Row | Variant | reverse-splicing fitness
22 | C82G A111G C150U C169G U176C | 0.0201
23 | C82G A111G C150U C169G U176G | 0.00611
24 | C82G A111G C150U C169U | 0.0123
25 | C82G A111G C150U C169U U176A | 0.0147
26 | C82G A111G C150U C169U U176C | 0.0172
27 | C82G A111G C150U C169U U176G | 0.00785
28 | C82G A111G C150U U176A | 0.128
29 | C82G A111G C150U U176C | 0.144
30 | C82G A111G C150U U176G | 0.0512
31 | C82G A111G C169A | 0.00879
32 | C82G A111G C169A U176A | 0.0162
33 | C82G A111G C169A U176C | 0.0224
34 | C82G A111G C169A U176G | 0.00537
35 | C82G A111G C169G | 0.00859
36 | C82G A111G C169G U176A | 0.0197
37 | C82G A111G C169G U176C | 0.0239
38 | C82G A111G C169G U176G | 0.0047
39 | C82G A111G C169U | 0.0143
40 | C82G A111G C169U U176A | 0.0155
41 | C82G A111G C169U U176C | 0.0177
42 | C82G A111G C169U U176G | 0.00625

Row | Variant | reverse-splicing fitness
43 | C82G A111G U176A | 0.277
44 | C82G A111G U176C | 0.279
45 | C82G A111G U176G | 0.0956
46 | C82G A111U | 0.387
47 | C82G A111U A120C | 0.0483
48 | C82G A111U A120C A145C | 0.0408
49 | C82G A111U A120C A145C C150A | 0.0109
50 | C82G A111U A120C A145C C150A C169A | 0.01
51 | C82G A111U A120C A145C C150A C169A U176A | 0.0162
52 | C82G A111U A120C A145C C150A C169A U176C | 0.0121
53 | C82G A111U A120C A145C C150A C169A U176G | 0.00706
54 | C82G A111U A120C A145C C150A C169G | 0.00886
55 | C82G A111U A120C A145C C150A C169G U176A | 0.0314
56 | C82G A111U A120C A145C C150A C169G U176C | 0.0279
57 | C82G A111U A120C A145C C150A C169G U176G | 0.00687
58 | C82G A111U A120C A145C C150A C169U | 0.01
59 | C82G A111U A120C A145C C150A C169U U176A | 0.0126
60 | C82G A111U A120C A145C C150A C169U U176C | 0.0105
61 | C82G A111U A120C A145C C150A C169U U176G | 0.00605
62 | C82G A111U A120C A145C C150A U176A | 0.0111
63 | C82G A111U A120C A145C C150A U176C | 0.0127

Row | Variant | reverse-splicing fitness
64 | C82G A111U A120C A145C C150A U176G | 0.0066
65 | C82G A111U A120C A145C C150G | 0.0104
66 | C82G A111U A120C A145C C150G C169A | 0.0104
67 | C82G A111U A120C A145C C150G C169A U176A | 0.0101
68 | C82G A111U A120C A145C C150G C169A U176C | 0.00917
69 | C82G A111U A120C A145C C150G C169A U176G | 0.00634
70 | C82G A111U A120C A145C C150G C169G | 0.00735
71 | C82G A111U A120C A145C C150G C169G U176A | 0.0106
72 | C82G A111U A120C A145C C150G C169G U176C | 0.00909
73 | C82G A111U A120C A145C C150G C169G U176G | 0.00606
74 | C82G A111U A120C A145C C150G C169U | 0.00834
75 | C82G A111U A120C A145C C150G C169U U176A | 0.00676
76 | C82G A111U A120C A145C C150G C169U U176C | 0.0113
77 | C82G A111U A120C A145C C150G C169U U176G | 0.00524
78 | C82G A111U A120C A145C C150G U176A | 0.00451
79 | C82G A111U A120C A145C C150G U176C | 0.00843
80 | C82G A111U A120C A145C C150G U176G | 0.00354
81 | C82G A111U A120C A145C C150U | 0.0168
82 | C82G A111U A120C A145C C150U C169A | 0.00911
83 | C82G A111U A120C A145C C150U C169A U176A | 0.0164
